Test system: MS2 coat protein
Assay: apparent KD of MS2 coat protein; designed switch direction (-1 OFF switch, 1 ON switch): 1; higher = weaker reporter binding
Method in brief: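 Stalled E. coli RNA polymerase transcribed designed RNA switches on Illumina chips, which were then titrated with SNAP-549-labelled MS2 coat protein, doubling from 0.7 or 1.5 nM to 3 µM. Steps lasted from 0.8–1.5 h at the lowest concentration to 10–20 min at the highest. The apparent KD is each design's median over clusters of curve-fitted normalised fluorescence.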

[1] = input ligand: microRNA oligo, concentration not stated
[2] = Eterna round: R95, input ligand: microRNA oligo, concentration not stated
[3] = Eterna round: R95, input ligand: FMN 200 uM
[4] = Eterna round: R95, input ligand: none

Sequence | apparent KD of MS2 coat protein (input ligand: FMN 200 uM) [nM] | apparent KD of MS2 coat protein [1] [nM] | apparent KD of MS2 coat protein (input ligand: none) [nM] | apparent KD of MS2 coat protein [2] [nM] | apparent KD of MS2 coat protein [3] [nM] | apparent KD of MS2 coat protein [4] [nM]
AAAACAUGACGAGGAUAUGGUACAUGAGGAUCACCCAUGUAUGUACCACGACGCGUACGUCGAAUCCAGAAGGCGUCGUGAAAA [Mat - Same State NG 2 - JL mod - D19] (Eterna round: R96, puzzle: Same State NG 2) | 20.3 | 68.5 | 74.1 | – | – | –
UAGUACAUGCUUUUUGUCUGUCUUAGAUAACAUGAGGAUCACCCAUGUAAGGUGAAAGUUAUAUAGUUUAUGAAUAU [JR_SHM208A_Sub058] (Eterna round: R96, puzzle: Sensor for hsa-mir-208a) | 242 | 309 | 241 | – | – | –
CGGCGCUGUCGAGAGGAUAUGCGGUGAUGGACAUGAGGAUCACCCAUGUUAGCGAUAGCAUCACGGUAGAAGGCUCCACAGCCGU [Soteed Omei mod 13] (puzzle: Same State 2) | – | – | – | 23 | – | –
UGUUGUAUUACAGGAUAUCUAUUAGUUUCAUUUAGAGAAGGGUAUUCACAUGAGGAUCACCCAUGUAUAUACGAGGAAGUUGUG [JMF's solution 95] (Eterna round: R96, puzzle: Same State NG 1) | 55 | 44.4 | 59.6 | – | – | –
ACGUGGCUGCCGCAGGAUAUACCCUGUUCCACAUGAGGAUCACCCAUGUUUACGAACUAUGAGAGGUAGAAGGGUGGAUGUCAUU [Beenvean] (puzzle: Same State 2) | – | – | – | 23.7 | – | –
AUUGCUUACGCAGGAUAUGAUGCGAAAAUUGCGUCAGAAGGGUGAAGUAACUCAUUGCAACAGGACAUGAGGAUCACCCAUGUC [SameState NG1 #89] (Eterna round: R96, puzzle: Same State NG 1) | 105 | 250 | 681 | – | – | –
GAGUAGUUGGGAGGAUAUGCAUUGUUAUUAAAUGCAGAAGGUUUUAACAUGAGGAUCACCCAUGUAGGACUAUUCCUGUGUAUC [Parity 70 - Jieux - Same State NG 1] (Eterna round: R96, puzzle: Same State NG 1) | 17.3 | 13.7 | 17.1 | – | – | –
GGCAUGCGGCGUACCGUAUGCUGGUAUGUACAUGAGGAUCACCCAUGUCAUGUACAGGCUUGUUGCUCGUCUUAUUG [JL-shm-2.41 JL mod] (puzzle: Sensor for hsa-mir-208a) | – | – | – | 34.3 | 137 | 158
GGCGAAUAAACAUGAGGAUCACCCAUGUAGCGGAGACGCAAUGAGGAUAUCGAUGGGUUUCCCGUCGAGAAGGCAUGGGUCGCC [JL SSNG3 3.93 mod 1] (Eterna round: R96, puzzle: Same State NG 3) | 20.8 | 99.6 | 140 | – | – | –
GCUCCAUUACGAGGAUAUGGGAAAGGAAGUGUACCAGAAGGCGUGAAAAGGUACAUGAGGAUCACCCAUGUACCCGGGAGCAAA [PowerStrip SSNG 1.11] (Eterna round: R96, puzzle: Same State NG 1) | 23.1 | 19.6 | 20.3 | – | – | –
AGCGCGGUCUCGCAGGAUAUCCACAUUCCUACAUGAGGAUCACCCAUGUCGCUGCAGGAUAUUAGGGAGAAGGGUGAUGCCGCGG [Quesed] (puzzle: Same State 2) | – | – | – | 42.7 | 22.7 | 48.4
GGUCGGACUCACAUGAGGAUCACCCAUGUUCCGGAAACGGGACAGGAUAUCUGUCCGAAAAGGUCAGAGAAGGGUCUACCGACC [Fiskers NG3ss - 54] (Eterna round: R96, puzzle: Same State NG 3) | 353 | 126 | 289 | – | – | –
GGAGAGAGAGCGGAGGAUAUUCAAGGAGAGACAUGAGGAUCACCCAUGUAAGAGAGAGAGGAGAGGAAGAAGGCUGAGAGAGAGG [Altered State 2-10 - Jieux - Same State 2] (puzzle: Same State 2) | – | – | – | 26.9 | 32.1 | 42.8
UGGUACAUGGGAGGAUAUCUCAUGGUGACAUGAGGAUCACCCAUGUAGUUGGACCGGAAACGGUGAGAGAAGGCCCAUGUACCU [JL SSNG1 3.74] (Eterna round: R96, puzzle: Same State NG 2) | 72.1 | 68.3 | 95.9 | – | – | –
GUGGUCAGACAUGAGGAUCACCCAUGUGGAAUAAAUAACACACAGGAUAUCGAAUAUAAAAUAUACGAGAAGGGUGGAUUGGUG (Eterna round: R96, puzzle: Same State NG 3) | – | 334 | – | – | – | –
GUGGUCAGACAUGAGGAUCACCCAUGUGGAAUAAAUAACAGACAGGAUAUUUAAUAUAGGAUAUAAAAGAAGGGUCGAUUGGUG (Eterna round: R96, puzzle: Same State NG 3) | 110 | 98.9 | 116 | – | – | –
CUACGCGCCGCAGGAUAUGCCGACCCGUGUUGAGCAGAAGGGCGCAACAUGAGGAUCACCCAUGUUGAAAGAGCGCAAAAUUAA [Zaesre] (Eterna round: R96, puzzle: Same State NG 1) | 11.1 | 12.5 | 16 | – | – | –
UUUGAAUUGCAAGGAUAUCUUAUUUAGAUUUUAAGAGAAGGUGCUUUAUAGUUACAUGAGGAUCACCCAUGUAUUUCUUUUUAU [JR_SSNG1_Sub062] (Eterna round: R96, puzzle: Same State NG 1) | – | 18.5 | – | – | – | –
AGUCCAGCCUGAGCUGGACUGAAGCAUGUACAUGAGGAUCACCCAUGUUCAUGUGCAGGCUUUUUGCUCGUCUUAUG [JL-shm-2.01 JL mod] (puzzle: Sensor for hsa-mir-208a) | – | – | – | 13.5 | 84.7 | 108

— the supplement of paper PMC9170038
